Results on three molecules are retold here after patent publication US20240003880A1 (TRUSTEES OF COLUMBIA UNIVERSITY IN THE CITY OF NEW YORK, published 2024).

Assay [1] deals with T1, SARS-CoV-2 nucleocapsid phosphoprotein (SARS-CoV-2, UniProt P0DTC9 1-419). In words: Western blot on NP denatured with DTT and heat (FIG. 4).
Assay [2] has as its target T1, SARS-CoV-2 nucleocapsid phosphoprotein. Briefly: ELISA (FIG. 3). A general note: In an ELISA, binding on a coated surface is turned into a signal by an enzyme label.

B1: antibody 9-29 (antibody, V domains shown)
VH: EVQLVQSGAEVKKSGESLKISCKGSGYSFTNYWIGWVRQMPGKGLEWMGIIYPGDSDTRHSPSFQGQVTISADKSLRTAYLQWSSLKASDTAIYYCARGADGYSSYFDYWGQGTLVTVSS
VL: NFMLTQPHSVSESPGKTVIISCTRSSGSIASDYVQWYQQRPGSVPTTVIYEDNERPSGVPDRFSGSIDSSSNSASLTISGLKTEDEADYYCQSYDSSVQVFGGGTKLTVL
For the molecule B1, the binding result in assay [1] is “binds”.

B2: antibody 9-8 (antibody, V domains shown)
VH: EVQLVESGGGLVQPGGSLRLSCAASGFTFSTYWMSWVRQAPGKGLEWVANIKQDGSEKYYVDSVKGRFTISRDNAKNSLYLQMNSLRAEDTAVYYCARYSLDYYDTSGSFDYWGQGTLVAVSS
VL: SYELTQPPSVSVSPGQTARITCSGDALPKKYAYWYQQKSGQAPVLVIYEDSKRPSGIPERFSGSSSGTMATLTISGAQVEDEADYYCYSTDSSGNHRGVFGGGTQLTVL
For B2, the binding result in assay [2] was “binds”.

B3: antibody 9-9 (antibody, V domains shown)
VH: EVQLVESGGGLVQPGGSLRLSCAASGFIFSNYWMSWVRQAPGKGLEWVANTKQDDSEKYYVDAVKGRFTISRDNAKNSLYLQMNSLRADDTAVYYCAREVRIAVTGTSRDEDYSYNGMDVWGQGTTVTVSS
VL: SYELTQPPSVSVSPGQTARITCSADALAKQYAYWYQQKPGQAPVLVIFKDSERPSGIPERFSGSSSGTTVTLTISRVQAEDEADYYCQSADSSGYYWAFGGGTKLTVL
Turning to B3, in assay [1], the binding result is given as “binds”.
